Paper PMC6992696, “Supramolecular tholos-like architecture constituted by archaeal proteins without functional annotation” (Scientific Reports, 2020)
Blank lines part the entries; values can stand above or below the molecule they belong to.

B1: N-terminally hexahistidine-tagged PbaA (natural protein, Pyrococcus furiosus)
chain: MEEKKPVNLVLPEVENAIFIEGYPGVGLVGHIAANFLAKELDMDLIGYVDSLFIPPMSLILEGRPTPPLRFYGKNNIIIAIADIFLPPTLVNEIAKEIVNYLKKVNAEKVISLAGMGIGFFKDTFEVWGIGGSEEENKELESLGVKILKYGSITGMSGKLLWEASRAGLKSYVLLGETFGDRPDPRAAANVVEVLNKMLGLNVSVEPLLKEAEMIEEQLRRMHEQMEEARRKMERQYETMYL
notes: PbaA (PF0015), Pyrococcus furiosus; The His tag was labelled with a monoclonal anti-histidine-tag antibody (R&D Systems) in the cryo-EM sample; the antibody is only a tool; May be the same preparation as m1 if the tag was never removed there; not shown: His6, N-terminal, kept
B2: PbaA (PF0015) from Pyrococcus furiosus, full-length (natural protein, UniProt Q8U4Q9 1-242, looked up)
chain: B1 chain
notes: PbaA (PF0015), Pyrococcus furiosus, full-length; cloned from P. furiosus genomic DNA; Homopentameric ring when isolated; two pentameric rings in the 10:10 complex with PF0014; also called full-length PbaA; PbaA pentamer
B3: PF0014 from Pyrococcus furiosus (natural protein, UniProt Q8U4R0 1-128, looked up)
chain: MVVEIPLLSGIARRTLDALMRNPIRTVEIRNARNYMTLEKVKEGDLVFLTYESLEDVMRGTEGIIAMVTRMEKSHQRVPWEESDEREISICRVQLKLVGLGRVVEVQEKNGVVFVKVREMLHHEISMG
notes: PF0014, Pyrococcus furiosus, an archaeal protein without functional annotation; Monomeric by HS-AFM when isolated; ten copies in the complex with PbaA

Tests used:
[1] = target: PbaA_(CΔ30), mutant PbaA with deletion of 30 C-terminal amino acid residues (Pyrococcus furiosus); experiment: SEC + other: negative stain EM; PbaA_(CΔ30) alone, in the absence of PF0014
[2] = target: PbaA_(CΔ30), mutant PbaA with deletion of 30 C-terminal amino acid residues (Pyrococcus furiosus); experiment: cryo-EM structure; purified PbaA_(CΔ30)/PF0014 complex; map EMD-0755 at 7.3 Å with D5 symmetry and 8.5 Å with C1 symmetry
[3] = target: the molecule itself; experiment: cryo-EM structure; hexahistidine-tagged PbaA/Trx-PF0014 complex treated with excess anti-histidine-tag monoclonal antibody for 2 h at 4 °C; map at 14 Å, C1 symmetry
[4] = target: the molecule itself; experiment: HS-AFM; isolated proteins, top views on APTES-mica, tapping mode, room temperature
[5] = target: B2; experiment: native MS; purified PbaA/PF0014 complex (20 μM) exchanged into 150 mM ammonium acetate pH 9.0, 2-fold diluted, nanoflow ESI, SYNAPT G2-Si; settings: both partners purified

stoichiometry N [1]: 14 protomers | stoichiometry N [2]: 5 protomers
Molecule: PbaA_(CΔ30), mutant PbaA with deletion of 30 C-terminal amino acid residues (domain or fragment)

Molecule: B1
stoichiometry N [3]: 5 protomers

Molecule: B2
stoichiometry N [4]: 5 protomers

Molecule: B3
stoichiometry N [5]: 1 PF0014 per PbaA (10:10)
